Experiment in all cases: BLI
For assay [1], the target named is T1, Omicron BA.1 spike protein ectodomain (BLI) (SARS-CoV-2 Omicron BA.1, strain).
Assay [2] has as its target T2, D614G-Hexapro (WT) spike ectodomain (SARS-CoV-2 Wuhan-Hu-1 D614G, D614G).
The target of assay [3] is T1, Omicron BA.1 spike protein ectodomain …. The note with it: both partners purified.
Assay [4] deals with Omicron BA.5 spike protein ectodomain (BLI) (SARS-CoV-2 Omicron BA.5 (BA.4/5 spike), strain). The settings on record: both partners purified.
Assay [5] deals with T2, D614G-Hexapro (WT) spike ectodomain. The note with it: both partners purified.
The target of assay [6] is Omicron BA.2 spike protein ectodomain (BLI) (SARS-CoV-2, Omicron BA.2, strain). The note with it: both partners purified.
Assay [7] has as its target Omicron BA.2.12 spike protein ectodomain (BLI) (SARS-CoV-2 Omicron BA.2.12.1, strain). The note with it: both partners purified.
In assay [8] the target is SARS-CoV-2 Omicron BA.2.12.1 spike protein ectodomain (SARS-CoV-2 Omicron BA.2.12.1, S373P). The note with it: both partners purified.
Assay [9] deals with SARS-CoV-2 B.1.1.529.1/BA.1 S-HexaPro (SARS-CoV-2, Omicron BA.1, Ser371Leu | Ser373Pro | Ser375Phe | Q493R). The note with it: both partners purified.

This note sets out measurements from paper PMC10713552 (Communications Biology, 2023).

Where two headings read alike, the source gives them in different places.

B1: N3-1_M (antibody, V domains shown)
VH: QVQLQQWGPGLVNPSETLSLTCSVSGGSFATENYYWSWIRQHPGEGLEWIGNIYFSGNTYYNPSLNNRFTISFDTSKNHLSLKLPSVTAADTAVYYCARGTIYFDMSGYRRVDPFHIWGQGTMVIVSS
VL: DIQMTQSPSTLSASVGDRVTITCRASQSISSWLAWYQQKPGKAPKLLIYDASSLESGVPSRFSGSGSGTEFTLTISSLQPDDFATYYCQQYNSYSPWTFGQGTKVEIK
notes: IgG1
By Kd is commonly meant a measure of binding affinity in units of concentration. Low values mean higher affinity, high ones lower affinity. As a reminder, the koff is the first-order rate constant of dissociation. High values mean fast dissociation, low ones slow dissociation. The kon is the rate constant with which the complex forms. Regarding B1, the Kd in assay [1] stood at 33.2 nM; in assay [2] it was 4420 nM; in assay [3], 428 nM; in assay [4], 172 nM; in assay [5], 4.22 nM; in assay [6] it was 178 nM. The Kd in [7] is 28 nM. For the same molecule, the koff in assay [1] came out at 0.00105 s⁻¹; in assay [2], 0.00151 s⁻¹; in assay [3] it was 0.00368 s⁻¹; in [4], 0.00253 s⁻¹; in [5], 0.000278 s⁻¹; in assay [6] it was 0.00245 s⁻¹. This molecule also gave a koff in assay [7] of 0.000621 s⁻¹. In addition, the kon was 31700 M⁻¹ s⁻¹ in assay [1]; 342 M⁻¹ s⁻¹ in assay [2]; 8590 M⁻¹ s⁻¹ in assay [3]; 14700 M⁻¹ s⁻¹ in assay [4]; 65900 M⁻¹ s⁻¹ in assay [5]; 13800 M⁻¹ s⁻¹ in assay [6]. Further, the kon in assay [7] is 22200 M⁻¹ s⁻¹.

B2: N3-1_L (antibody, V domains shown)
VH: QVQLQQWGPGLVNPSETLSLTCSVSGGSFATENYYWSWIRQHPGEGLEWIGNIYFSGNTYYNPSLNNRFTISFDTSKNHLSLKLPSVTAADTAVYYCARGTIYFDLSGYRRVDPFHIWGQGTMVIVSS
VL: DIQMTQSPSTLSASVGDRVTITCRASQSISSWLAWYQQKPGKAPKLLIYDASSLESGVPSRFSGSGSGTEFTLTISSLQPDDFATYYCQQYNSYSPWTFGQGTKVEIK
notes: IgG1
On to B2, for which the Kd in [1] amounted to 15200 nM; in assay [2], 54.1 nM; in assay [3] it was 660 nM; in [4] it was 414 nM; in assay [5], 6 nM; in assay [6], 273 nM. The Kd in assay [7] turned out to be 173 nM. For the same molecule, the koff in assay [1] is 0.00357 s⁻¹; in assay [2], 0.00037 s⁻¹; in [3], 0.00429 s⁻¹; in assay [4], 0.00689 s⁻¹; in assay [5], 0.00047 s⁻¹; in [6] it was 0.00415 s⁻¹. The same molecule showed a koff in assay [7] of 0.00339 s⁻¹. For the same molecule, the kon came to 234 M⁻¹ s⁻¹ in assay [1]; 6840 M⁻¹ s⁻¹ in [2]; 6490 M⁻¹ s⁻¹ in assay [3]; 16600 M⁻¹ s⁻¹ in assay [4]; 78300 M⁻¹ s⁻¹ in [5]; 15200 M⁻¹ s⁻¹ in assay [6]. The kon in [7] is 19500 M⁻¹ s⁻¹.

B3: N3-1_I (antibody, V domains shown)
VH: QVQLQQWGPGLVNPSETLSLTCSVSGGSFATENYYWSWIRQHPGEGLEWIGNIYFSGNTYYNPSLNNRFTISFDTSKNHLSLKLPSVTAADTAVYYCARGTIYFDISGYRRVDPFHIWGQGTMVIVSS
VL: not shown
notes: IgG1
Turning to B3, the Kd in assay [1] worked out at 20.4 nM; in assay [2], 1220 nM; in [3], 331 nM; in assay [4] it was 145 nM; in [6], 121 nM; in assay [7], 76.9 nM. The koff in assay [1] amounted to 0.00136 s⁻¹; in assay [2] it was 0.000796 s⁻¹; in assay [3] it was 0.00193 s⁻¹; in assay [4] it was 0.00168 s⁻¹; in [6], 0.00146 s⁻¹; in assay [7], 0.00112 s⁻¹. Also, the kon was 66700 M⁻¹ s⁻¹ in assay [1]; 651 M⁻¹ s⁻¹ in assay [2]; 5820 M⁻¹ s⁻¹ in assay [3]; 11600 M⁻¹ s⁻¹ in assay [4]; 76000 M⁻¹ s⁻¹ in assay [5]; 12100 M⁻¹ s⁻¹ in assay [6]. In assay [7], the kon is 14600 M⁻¹ s⁻¹.

B4: N3-1_I (antibody, V domains shown)
VH: QVQLQQWGPGLVNPSETLSLTCSVSGGSFATENYYWSWIRQHPGEGLEWIGNIYFSGNTYYNPSLNNRFTISFDTSKNHLSLKLPSVTAADTAVYYCARGTIYFDISGYRRVDPFHIWGQGTMVIVSS
VL: not shown
notes: IgG1; copies: 2 + 2
As for B4, the “fold improvement in Kd against wild-type N3-1” value came to 20 fold in [8] and 4 fold in [9].

B5: N3-1_V (antibody, V domains shown)
VH: QVQLQQWGPGLVNPSETLSLTCSVSGGSFATENYYWSWIRQHPGEGLEWIGNIYFSGNTYYNPSLNNRFTISFDTSKNHLSLKLPSVTAADTAVYYCARGTIYFDVSGYRRVDPFHIWGQGTMVIVSS
VL: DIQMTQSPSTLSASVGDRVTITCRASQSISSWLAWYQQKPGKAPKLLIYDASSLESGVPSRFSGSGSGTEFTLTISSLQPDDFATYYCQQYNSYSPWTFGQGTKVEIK
notes: IgG1
With B5, the Kd in assay [3] amounted to 1340 nM; in assay [4], 1470 nM; in assay [5], 3.78 nM; in assay [6], 704 nM; in assay [7], 421 nM. For the same molecule, the koff in assay [3] is 0.00726 s⁻¹; in assay [4], 0.0163 s⁻¹; in [5] it was 0.00023 s⁻¹; in [6] it was 0.00681 s⁻¹; in [7], 0.00542 s⁻¹. The kon in assay [3] turned out to be 5410 M⁻¹ s⁻¹; in assay [4] it was 11100 M⁻¹ s⁻¹; in [5], 60900 M⁻¹ s⁻¹; in [6] it was 9670 M⁻¹ s⁻¹; in assay [7] it was 12900 M⁻¹ s⁻¹.

B6: N3-1_Y (antibody, V domains shown)
VH: QVQLQQWGPGLVNPSETLSLTCSVSGGSFATENYYWSWIRQHPGEGLEWIGNIYFSGNTYYNPSLNNRFTISFDTSKNHLSLKLPSVTAADTAVYYCARGTIYFDYSGYRRVDPFHIWGQGTMVIVSS
VL: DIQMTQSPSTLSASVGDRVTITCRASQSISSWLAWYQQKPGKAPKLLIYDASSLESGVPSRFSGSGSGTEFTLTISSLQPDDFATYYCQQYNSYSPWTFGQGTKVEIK
notes: IgG1
With B6, the Kd in assay [1] is 3550 nM; in [2], 233 nM; in assay [3], 709 nM; in [4], 337 nM; in assay [5], 5.45 nM; in [6], 225 nM. Binding in assay [7] was characterised by a dissociation constant (Kd) of 142 nM. In addition, the koff in [1] was found to be 0.00213 s⁻¹; in assay [2], 0.000325 s⁻¹; in assay [3] it was 0.00791 s⁻¹; in assay [4], 0.0072 s⁻¹; in [5], 0.000748 s⁻¹; in [6], 0.00447 s⁻¹. Further, the koff in assay [7] came to 0.00385 s⁻¹. Moreover, the kon in assay [1] was determined as 600 M⁻¹ s⁻¹; in assay [2], 1400 M⁻¹ s⁻¹; in assay [3], 11200 M⁻¹ s⁻¹; in assay [4], 21300 M⁻¹ s⁻¹; in assay [5], 137000 M⁻¹ s⁻¹; in assay [6], 19900 M⁻¹ s⁻¹. The kon in assay [7] amounted to 27100 M⁻¹ s⁻¹.

B7: N3-1_Q (antibody, V domains shown)
VH: QVQLQQWGPGLVNPSETLSLTCSVSGGSFATENYYWSWIRQHPGEGLEWIGNIYFSGNTYYNPSLNNRFTISFDTSKNHLSLKLPSVTAADTAVYYCARGTIYFDQSGYRRVDPFHIWGQGTMVIVSS
VL: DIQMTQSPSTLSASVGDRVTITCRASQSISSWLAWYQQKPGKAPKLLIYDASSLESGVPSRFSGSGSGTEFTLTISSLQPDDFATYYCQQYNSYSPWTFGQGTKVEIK
notes: IgG1
For the molecule B7, the Kd is 4800 nM in assay [3], 771 nM in assay [4], 483 nM in [6] and 291 nM in [7]. Also, the koff in assay [3] came out at 0.015 s⁻¹; in assay [4] it was 0.00666 s⁻¹; in assay [6], 0.00403 s⁻¹; in [7], 0.00336 s⁻¹. The kon in assay [3] came out at 3120 M⁻¹ s⁻¹; in assay [4], 8640 M⁻¹ s⁻¹; in [5] it was 1000 M⁻¹ s⁻¹; in [6], 8360 M⁻¹ s⁻¹; in assay [7], 11500 M⁻¹ s⁻¹.
